Experiment [1] addresses T1, cSNK:BSA conjugate (bovine, head-to-tail cyclized; conjugated to BSA carrier).
T1 construct: also called BSA-cSNK
Description: BLI (Octet), KD1.

Experiment [2] addresses T1, cSNK:BSA conjugate. Description: BLI (Octet), KD2. A general note: Biolayer interferometry detects binding as a change in optical thickness at a sensor tip.
Experiment [3] addresses T1, cSNK:BSA conjugate. The experiment can be described thus: BLI (Octet), 1:1 model, BSA-cSNK. The method, then: Biolayer interferometry (Octet Red92, ForteBio) was used to qualitatively/quantitatively assess the interactions between humanized 5E3 and Δ5E3 mAbs to the cSNK:BSA conjugate. […] MAbs were loaded onto sensors and then washed in PBST. Each sensor was associated with one of several cSNK:BSA standards (100 nM to 0 nM) and then washed in PBST. Data was processed statistically using ForteBio Data Analysis software to determine the strength of antigen-antibody binding (KD). For each mAb analyzed, a 1:1 model provided the “best fit”.

Experiment [4] addresses T1, cSNK:BSA conjugate. The experiment can be described thus: BLI 2:1 fit, column kdis2; 6.25 nM row. The method, then: (§1) Biolayer interferometry (Octet […], ForteBio) was used to qualitatively/quantitatively assess the interactions between humanized versions of 5E3 and cSNK:BSA conjugate. […] MAbs were loaded onto sensors and then washed in PBST. Each sensor was associated with one of several cSNK:BSA standards (100 nM to 0 nM) and then washed in PBST. Data was processed statistically using ForteBio Data Analysis software to determine the strength of antigen-antibody binding (KD). For each mAb analyzed, a 2:1 model provided the “best fit”.

Experiment [5] deals with T1, cSNK:BSA conjugate. Description: BLI 2:1 fit, column kon2; 100 nM row. The method, then:
as §1

For experiment [6], the target named is T1, cSNK:BSA conjugate. The experiment can be described thus: BLI 2:1 fit, column kdis; 50 nM row. The method, then:
as §1

Experiment [7] has as its target T1, cSNK:BSA conjugate. Description: BLI 2:1 fit, column kdis2; 12.5 nM row. The method, then:
as §1

Experiment [8] has as its target T1, cSNK:BSA conjugate. The experiment can be described thus: BLI 2:1 fit, column KD2; 100 nM row. How it is done:
as §1

The target in experiment [9] is T1, cSNK:BSA conjugate. The experiment can be described thus: BLI 2:1 fit, column kdis2; 100 nM row. The method, then:
as §1

For experiment [10], the target named is T1, cSNK:BSA conjugate. Description: BLI 2:1 fit, column KD; 50 nM row. The method, then:
as §1

Experiment [11] concerns the target T1, cSNK:BSA conjugate. Description: BLI 2:1 fit, column kon2; 6.25 nM row. How it is done:
as §1

Experiment [12] deals with T1, cSNK:BSA conjugate. Description: BLI 2:1 fit, column KD; 100 nM row; 100 nM row, column KD (site with kon 4.16E+06, kdis 3.38E-02). How it is done: as §1
Experiment [13] has as its target T1, cSNK:BSA conjugate. Description: BLI 2:1 fit, column kdis; 12.5 nM row. The method, then: as §1
For experiment [14], the target named is T1, cSNK:BSA conjugate. The experiment can be described thus: BLI 2:1 fit, column kon2; 50 nM row. How it is done: as §1
Experiment [15] concerns the target T1, cSNK:BSA conjugate. The experiment can be described thus: BLI 2:1 fit, column kon2; 25 nM row. The method, then:
as §1

The target in experiment [16] is T1, cSNK:BSA conjugate. Description: BLI 2:1 fit, column kon; 6.25 nM row. The method, then:
as §1

Experiment [17] addresses T1, cSNK:BSA conjugate. Description: BLI 2:1 fit, column kdis; 25 nM row. How it is done: as §1
For experiment [18], the target named is T1, cSNK:BSA conjugate. Description: BLI 2:1 fit, column kon; 25 nM row. How it is done:
as §1

Experiment [19] addresses T1, cSNK:BSA conjugate. The experiment can be described thus: BLI 2:1 fit, column kdis2; 25 nM row. The method, then: as §1
Experiment [20] concerns the target T1, cSNK:BSA conjugate. Description: BLI 2:1 fit, column kon; 50 nM row. How it is done: as §1
Experiment [21] concerns the target T1, cSNK:BSA conjugate. Description: BLI 2:1 fit, column KD2; 6.25 nM row. The method, then:
as §1

Experiment [22] addresses T1, cSNK:BSA conjugate. The experiment can be described thus: BLI 2:1 fit, column KD; 6.25 nM row. How it is done: as §1
The target of experiment [23] is T1, cSNK:BSA conjugate. The experiment can be described thus: BLI 2:1 fit, column KD2; 12.5 nM row. How it is done: as §1
For experiment [24], the target named is T1, cSNK:BSA conjugate. The experiment can be described thus: BLI 2:1 fit, column kon; 12.5 nM row. How it is done: as §1
Experiment [25] concerns the target T1, cSNK:BSA conjugate. Description: BLI (Octet RED96), 2:1 kinetics, KD2, summary table. The method, then: as §1
(§2) Table 7 summarizes the affinity constants of humanized 5E3 IgG1, IgG2 and IgG4 constructs. The KD ranges were determined using 2:1 kinetics of binding of analyte (BSA-cSNK) in solution to two different binding sites on the surface (immobilized bivalent, monospecific 5E3) in comparison to murine 5E3 using biolayer interferometry (Octet RED96).

Experiment [26] has as its target T1, cSNK:BSA conjugate. Description: BLI 2:1 fit, column kon2; 12.5 nM row. The method, then: as §1
In experiment [27] the target is T1, cSNK:BSA conjugate. The experiment can be described thus: BLI 2:1 fit, column KD2; 25 nM row. How it is done:
as §1

Experiment [28] addresses T1, cSNK:BSA conjugate. The experiment can be described thus: BLI 2:1 fit, column kdis; 100 nM row. The method, then:
as §1

In experiment [29] the target is T1, cSNK:BSA conjugate. The experiment can be described thus: BLI 2:1 fit, column kdis; 6.25 nM row. How it is done: as §1
The target of experiment [30] is T1, cSNK:BSA conjugate. The experiment can be described thus: BLI 2:1 fit, column kon; 100 nM row. How it is done:
as §1

Experiment [31] deals with T1, cSNK:BSA conjugate. Description: BLI 2:1 fit, column KD; 25 nM row. How it is done: as §1
Experiment [32] concerns the target T1, cSNK:BSA conjugate. The experiment can be described thus: BLI (Octet RED96), 2:1 kinetics, KD1, summary table. The method, then:
as §1, §2

Experiment [33] deals with T1, cSNK:BSA conjugate. The experiment can be described thus: BLI 2:1 fit, column kdis2; 50 nM row. The method, then:
as §1

In experiment [34] the target is T1, cSNK:BSA conjugate. Description: BLI 2:1 fit, column KD2; 50 nM row. How it is done:
as §1

The target in experiment [35] is T1, cSNK:BSA conjugate. The experiment can be described thus: BLI 2:1 fit, column KD; 12.5 nM row. How it is done:
as §1

Experiment [36] has as its target T1, cSNK:BSA conjugate. Description: BLI (Octet), compared to hu5E3.

Residue numbers refer to the chain shown, from its start. Names and notes keep the numbering of the source.

T1 sequence (P02769 25-607 limits assumed): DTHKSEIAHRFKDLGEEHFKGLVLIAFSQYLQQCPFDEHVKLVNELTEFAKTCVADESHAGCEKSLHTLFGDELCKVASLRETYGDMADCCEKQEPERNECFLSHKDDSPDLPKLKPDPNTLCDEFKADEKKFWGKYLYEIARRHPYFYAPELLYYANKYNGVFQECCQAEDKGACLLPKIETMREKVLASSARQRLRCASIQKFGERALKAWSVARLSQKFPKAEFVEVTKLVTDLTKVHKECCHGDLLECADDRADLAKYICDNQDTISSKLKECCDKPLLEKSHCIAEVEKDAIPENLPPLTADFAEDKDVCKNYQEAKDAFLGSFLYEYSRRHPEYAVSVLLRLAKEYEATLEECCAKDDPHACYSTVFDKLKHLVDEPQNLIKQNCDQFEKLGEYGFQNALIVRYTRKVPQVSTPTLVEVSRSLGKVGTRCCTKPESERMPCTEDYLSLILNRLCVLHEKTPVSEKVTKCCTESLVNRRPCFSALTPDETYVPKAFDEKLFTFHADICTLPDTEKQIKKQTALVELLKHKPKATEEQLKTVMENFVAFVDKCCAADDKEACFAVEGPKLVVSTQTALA

B1: 5E3KCDR3-N93Q + 5E3HCDR3-Y212F (antibody, IgG1, V domains shown)
VH: QVQLQQSGPEVKKPGASVKISCKASGYIFTSYYIQWVIHAPGQGLEWIGWIYPGNVNTKYNEKFKGKATLTADKSSSTAYMELSSLTSEDTAVYFCARMDYEAHFWGQGTTVTVSS
VL: DIQMTQSPSSLSASVGDRVTITCRASQEISGYLTWLQQKPEGAIKRLIYAASTLDSGVPKRFSGSRSGSDYSLTISSLQPEDFATYNCLQYAQYPRTFGGGTKLEIK
notes: double combination in hu5E3 IgG1
Broadly, the Kd is the equilibrium constant for the complex coming apart. Regarding B1, the values for the Kd in the experiment with cSNK:BSA conjugate [1] and with cSNK:BSA conjugate [2] were 0.0201 nM and 2.8 nM, respectively.

B2: HuΔ5E3-IgG1 (IQR) (antibody, V domains shown)
VH: B1 VH with H39Q, A40R, F105Y
VL: B1 VL with Q93N
notes: human IgG1; also called huΔ5E3 IQR Mutation
B2 gave a Kd in the experiment with cSNK:BSA conjugate [3] of 1.26 nM.

B3: HuΔ5E3-IgG1 (KHA) (antibody, V domains shown)
VH: B1 VH with I38K, F105Y
VL: B1 VL with Q93N
notes: human IgG1; also called huΔ5E3 KHA Mutation
Molecule B3 had a Kd with cSNK:BSA conjugate [3] of 1.52 nM.

B4: HuΔ5E3-IgG1 (IHR) (antibody, V domains shown)
VH: B1 VH with A40R, F105Y
VL: B1 VL with Q93N
notes: human IgG1; also called huΔ5E3 IHR Mutation
The molecule B4 gave a Kd with cSNK:BSA conjugate [3] of 1.43 nM.

B5: rehu5E3-IgG2 (antibody, V domains shown)
VH: B1 VH with K12V, T87R, T91S, F105Y, T111L
VL: B1 VL with V15L, I21L, G42K, S72T, T85D, Q93N
notes: human IgG2/kappa
What is called koff is a measure of how fast the partners let go of each other. Lower therefore signals slow dissociation. As usually defined, the kon is a measure of how fast the partners come together. The low end stands for slower complex formation, the high end for faster complex formation. Turning to B5, the koff turned out to be 0.0338 s⁻¹ with cSNK:BSA conjugate [4]; 0.0338 s⁻¹ with cSNK:BSA conjugate [6]; 0.0338 s⁻¹ with cSNK:BSA conjugate [7]; 0.00089 s⁻¹ with cSNK:BSA conjugate [9]; 0.00089 s⁻¹ with cSNK:BSA conjugate [13]; 0.00089 s⁻¹ with cSNK:BSA conjugate [17]. The koff with cSNK:BSA conjugate [19] is 0.0338 s⁻¹; with cSNK:BSA conjugate [28], 0.0338 s⁻¹; with cSNK:BSA conjugate [29], 0.00089 s⁻¹; in the experiment with cSNK:BSA conjugate [33], 0.00089 s⁻¹. Further, the kon in the experiment with cSNK:BSA conjugate [5] amounted to 698000 M⁻¹ s⁻¹; with cSNK:BSA conjugate [11], 4.16e+06 M⁻¹ s⁻¹; in the experiment with cSNK:BSA conjugate [14] it was 698000 M⁻¹ s⁻¹; in the experiment with cSNK:BSA conjugate [15] it was 4.16e+06 M⁻¹ s⁻¹; with cSNK:BSA conjugate [16] it was 698000 M⁻¹ s⁻¹; with cSNK:BSA conjugate [18], 698000 M⁻¹ s⁻¹. Moreover, the kon with cSNK:BSA conjugate [20] is 4.16e+06 M⁻¹ s⁻¹; with cSNK:BSA conjugate [24], 698000 M⁻¹ s⁻¹; with cSNK:BSA conjugate [26], 4.16e+06 M⁻¹ s⁻¹; with cSNK:BSA conjugate [30] it was 4.16e+06 M⁻¹ s⁻¹. For the same molecule, the Kd came out at 1.28 nM with cSNK:BSA conjugate [8]; 8.14 nM in the experiment with cSNK:BSA conjugate [10]; 8.14 nM with cSNK:BSA conjugate [12]; 8.14 nM in the experiment with cSNK:BSA conjugate [21]; 1.28 nM with cSNK:BSA conjugate [22]; 8.14 nM in the experiment with cSNK:BSA conjugate [23]. The Kd stood at 1.28 nM with cSNK:BSA conjugate [25]; 8.14 nM with cSNK:BSA conjugate [27]; 1.28 nM with cSNK:BSA conjugate [31]; 8.14 nM with cSNK:BSA conjugate [32]; 1.28 nM in the experiment with cSNK:BSA conjugate [34]; 1.28 nM with cSNK:BSA conjugate [35].

B6: 5E3KCDR3-Y91F (antibody, IgG1, V domains shown)
VH: B1 VH with F105Y
VL: B1 VL with Y91F, Q93N
notes: hu5E3 IgG1 vector mutant
B6: the binding result with cSNK:BSA conjugate [36] was “no binding (tested: 100 nM)”.

B7: HuΔ5E3-IgG1 (KQA) (antibody, V domains shown)
VH: B1 VH with I38K, H39Q, F105Y
VL: B1 VL with Q93N
notes: human IgG1; also called huΔ5E3 KQA Mutation
Take B7: binding in the experiment with cSNK:BSA conjugate [3] was characterised by a dissociation constant (Kd) of 1.28 nM.

B8: HuΔ5E3-IgG1 (KQR) (antibody, V domains shown)
VH: B1 VH with I38K, H39Q, A40R, F105Y
VL: B1 VL with Q93N
notes: human IgG1; also called hu5E3 IgG1 KQR; huΔ5E3 KQR Mutation
In turn, B8 yielded a Kd with cSNK:BSA conjugate [3] of 1.88 nM.

B9: 5E3KCDR3-Y94F (antibody, IgG1, V domains shown)
VH: B1 VH with F105Y
VL: B1 VL with Q93N, Y94F
notes: hu5E3 IgG1 vector mutant
Regarding B9, the binding result with cSNK:BSA conjugate [36] is “no binding (tested: 100 nM)”.

B10: HuΔ5E3-IgG2 (KQR) (antibody, V domains shown)
VH: B1 VH with I38K, H39Q, A40R, F105Y
VL: B1 VL with Q93N
notes: KQR framework 2 variant of hu5E3 on human IgG2
In the experiment with cSNK:BSA conjugate [3], B10 displayed a Kd of 0.226 nM.

B11: HuΔ5E3-IgG4 (KQR) (antibody, V domains shown)
VH: B1 VH with I38K, H39Q, A40R, F105Y
VL: B1 VL with Q93N
notes: KQR framework 2 variant of hu5E3 on human IgG4
Turning to B11, in the experiment with cSNK:BSA conjugate [3], the Kd came out at 1.04 nM.

The record behind these values is patent publication US20170008955A1 (CNJ, published 2017).
